± gives the standard error. For some of these results: Variants at the floor of the assay were thinned out.
B1: glmS ribozyme (parent)
chain: AUAAAAGCGCCAGAACUACAGAAAUGUAGUUGACGAGGAGGAGGUUUAUCGAAUUUUCGGCGGAUGCCUCCAAA

Columns and labels:
Conditions in all cases: with glucosamine-6-phosphate
glucosamine-6-phosphate [1] = variants of: B1; test: kcat; higher = faster cleavage; RNA array
In short: (§1)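 Barcoded ribozyme variants on sequenced MiSeq chips were transcribed in situ by E. coli RNA polymerase and followed at 37 °C through a hybridised Cy3 probe. Glucosamine-6-phosphate at 40 μM to 10 mM in HEPES/KCl/Mg(OAc)2 buffer was flowed in, and tiles were imaged over ~14 h. Signals were normalised to baseline and to non-cleaving reference variants, and per-tile medians were fit to one- or two-exponential decays to give kobs. Weighted Michaelis–Menten fits across concentrations gave kcat and KM.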

glucosamine-6-phosphate [2] = variants of: B1; test: self-cleavage kobs at 40 uM GlcN6P; higher = faster cleavage; RNA array
In short: as §1

glucosamine-6-phosphate [3] = variants of: B1; test: self-cleavage kobs at 160 uM GlcN6P; higher = faster cleavage; RNA array
In short: as §1

glucosamine-6-phosphate [4] = variants of: B1; test: self-cleavage kobs at 640 uM GlcN6P; higher = faster cleavage; RNA array
In short: as §1

glucosamine-6-phosphate [5] = variants of: B1; test: self-cleavage kobs at 2500 uM GlcN6P; higher = faster cleavage; RNA array
In short: as §1

glucosamine-6-phosphate [6] = variants of: B1; test: self-cleavage kobs at 10000 uM GlcN6P; higher = faster cleavage; RNA array
In short: as §1

glucosamine-6-phosphate [7] = variants of: B1; test: KM; higher = weaker cofactor use; RNA array
In short: as §1

| Variant | kcat (glucosamine-6-phosphate [1]) [s⁻¹] | self-cleavage kobs at 40 uM GlcN6P (glucosamine-6-phosphate [2]) [s⁻¹] | self-cleavage kobs at 160 uM GlcN6P (glucosamine-6-phosphate [3]) [s⁻¹] | self-cleavage kobs at 640 uM GlcN6P (glucosamine-6-phosphate [4]) [s⁻¹] | self-cleavage kobs at 2500 uM GlcN6P (glucosamine-6-phosphate [5]) [s⁻¹] | self-cleavage kobs at 10000 uM GlcN6P (glucosamine-6-phosphate [6]) [s⁻¹] | KM (glucosamine-6-phosphate [7]) [µM] |
| --- | --- | --- | --- | --- | --- | --- | --- |
| U56G C61A | < 1e-05 |  |  |  |  |  |  |
| A33U U54G | 0.000139 ± 4.4e-05 | < 1e-05 | < 1e-05 | 4.57e-05 ± 1.6e-05 | 5.67e-05 ± 9.8e-06 | 0.000111 ± 1.8e-05 |  |
| A33U U54A | 0.000116 ± 2e-05 |  |  | 6.35e-05 ± 1.7e-05 | 7.03e-05 ± 1.2e-05 | 0.000117 ± 1.6e-05 |  |
| U46G C70A | 0.000224 ± 6.8e-05 | 4.78e-05 ± 1.2e-05 | 4.54e-05 ± 1.6e-05 | 0.000153 ± 2.5e-05 | 0.000395 ± 7.2e-05 | 0.000188 ± 3.1e-05 |  |
| G29U G66A | 0.0034 ± 0.00083 | 8.79e-05 ± 1.5e-05 | 0.000716 ± 0.0002 | 0.000732 ± 0.00016 | 0.00168 ± 0.00038 | 0.00316 ± 0.00039 | 1710 ± 700 |
| G40A A42G | 0.00697 ± 0.0023 | 0.000182 ± 2.4e-05 | 0.00046 ± 9.7e-05 | 0.00157 ± 0.00024 | 0.00363 ± 0.00075 | 0.00783 ± 0.0018 | 1900 ± 820 |
| A14C U47A | 0.00403 ± 0.00081 | 7.39e-05 ± 9.6e-06 | 0.000213 ± 3.2e-05 | 0.000676 ± 8.4e-05 | 0.00184 ± 0.0002 | 0.00348 ± 0.00048 | 2760 ± 760 |
| A12U U57A | 0.00082 ± 0.00011 |  | 4.56e-05 ± 1.7e-05 | 0.000113 ± 2e-05 | 0.000287 ± 5e-05 | 0.000604 ± 8.4e-05 | 4040 ± 880 |
| U47A C58G | 0.000134 ± 1.1e-05 |  |  | 4.54e-05 ± 1.7e-05 | 7.52e-05 ± 1.2e-05 | 0.000117 ± 1.5e-05 | 1740 ± 440 |
| U45G C58A | 0.000297 ± 2.9e-05 |  |  | 4.61e-05 ± 9.8e-06 | 0.000147 ± 2.3e-05 | 0.00022 ± 2.6e-05 | 3170 ± 620 |
| G38C C70A | 1.54e-05 ± 2.7e-06 |  |  |  |  |  |  |
| C50G C67U | 0.000113 ± 9.9e-06 | 9.57e-05 ± 8e-06 | 0.000129 ± 1.6e-05 | 0.000141 ± 1.7e-05 | 0.000126 ± 1.5e-05 | 0.000101 ± 7.4e-06 |  |
| C50A A53C U57G C58G | 6.76e-05 ± 2.5e-05 |  |  | 0.000112 ± 2.3e-05 | 8.01e-05 ± 1.9e-05 |  |  |
| U56A C70G | 0.000119 ± 1.4e-05 | 4.01e-05 ± 1e-05 | 8.18e-05 ± 1e-05 | 0.000105 ± 1.1e-05 | 0.000153 ± 1.5e-05 | 0.0001 ± 1.1e-05 |  |
| G32U C71G | 0.000107 ± 7.3e-06 |  |  | 6.13e-05 ± 1.6e-05 | 7.51e-05 ± 9.8e-06 | 0.000102 ± 8.2e-06 | 741 ± 280 |
| A6U A42G | 0.000505 ± 0.00011 |  |  | 8.54e-05 ± 1.6e-05 | 0.000156 ± 5.1e-05 | 0.00038 ± 6e-05 | 3730 ± 1400 |
| A48C C70U | 0.000564 ± 5.5e-05 |  |  | 8.59e-05 ± 1.5e-05 | 0.000254 ± 3.9e-05 | 0.000401 ± 7.4e-05 | 3470 ± 540 |

| Variant | kcat (glucosamine-6-phosphate [1]) [s⁻¹] | self-cleavage kobs at 40 uM GlcN6P (glucosamine-6-phosphate [2]) [s⁻¹] | self-cleavage kobs at 160 uM GlcN6P (glucosamine-6-phosphate [3]) [s⁻¹] | self-cleavage kobs at 640 uM GlcN6P (glucosamine-6-phosphate [4]) [s⁻¹] | self-cleavage kobs at 2500 uM GlcN6P (glucosamine-6-phosphate [5]) [s⁻¹] | self-cleavage kobs at 10000 uM GlcN6P (glucosamine-6-phosphate [6]) [s⁻¹] | KM (glucosamine-6-phosphate [7]) [µM] |
| --- | --- | --- | --- | --- | --- | --- | --- |
| U30A C71A | 0.00089 ± 0.00018 | 5.08e-05 ± 1.3e-05 |  | 0.000632 ± 0.0002 | 0.000946 ± 0.00022 | 0.00072 ± 0.00016 | 603 ± 230 |
| A52G G60U | < 1e-05 |  | < 1e-05 | < 1e-05 |  |  |  |
| U47A C61A C70G C71U | 1.64e-05 ± 4.7e-06 |  |  |  |  |  |  |
| C61G C67U | 2.12e-05 ± 5.2e-06 |  |  |  |  |  |  |
| C61G C67A | 2.67e-05 ± 6.5e-06 |  |  | 3.33e-05 ± 1.4e-05 |  |  |  |
| C58G C61A | 1.85e-05 ± 4e-06 |  |  |  |  |  |  |
| C11G G51A | < 1e-05 | < 1e-05 |  |  |  | < 1e-05 | 30.6 ± 15 |
| U56G C68A | 2.79e-05 ± 2.6e-06 |  |  |  | 2.72e-05 ± 1.3e-05 |  |  |
| A6U U69C | 8.65e-05 ± 8.1e-06 |  |  | 6.1e-05 ± 2.4e-05 | 8.15e-05 ± 2.4e-05 | 7.96e-05 ± 1.8e-05 |  |
| A6G U46G C68U | 3.96e-05 ± 1.9e-05 |  |  |  | 4.82e-05 ± 2.3e-05 |  |  |
| C16G U54A | 0.00588 ± 0.0013 | 0.000135 ± 1.8e-05 | 0.000487 ± 0.00011 | 0.00144 ± 0.00019 | 0.0024 ± 0.00062 | 0.00601 ± 0.00089 | 1860 ± 560 |
| A15U U54G U65G | 0.000547 ± 5.8e-05 |  |  | 0.000149 ± 2.4e-05 | 0.00039 ± 0.00013 | 0.00045 ± 0.00011 | 1670 ± 300 |
| U56A A64U | 5.11e-05 ± 2e-06 |  |  |  | 3.54e-05 ± 1.6e-05 | 4.52e-05 ± 1e-05 | 1250 ± 250 |
| G9U A14G | 1.09e-05 ± 5.1e-06 | < 1e-05 |  |  | < 1e-05 | < 1e-05 |  |
| C58U A64C C70A | 1.83e-05 ± 1.5e-06 | < 1e-05 |  |  |  |  | 363 ± 120 |
| A53C U54A | 0.00804 ± 0.0035 | 0.000184 ± 2.3e-05 | 0.000353 ± 9.2e-05 | 0.00128 ± 0.00018 | 0.00277 ± 0.00065 | 0.00747 ± 0.00098 |  |
| A53C C68U | 9.65e-05 ± 7.1e-06 |  |  | 3.67e-05 ± 7.7e-06 | 8.77e-05 ± 1e-05 | 8.67e-05 ± 5.3e-06 | 858 ± 310 |
